{"source": "patent US10105305B2", "about": "“Compositions and methods for promoting skin regeneration and hair growth” (THE JOHNS HOPKINS UNIVERSITY, priority 2014, dated 2018)", "origin": "cited, not measured here", "conditions": "in solution; cited from earlier work"}
{"substance": "LL-37: 37 amino acid cathelicidin peptide, SEQ ID NO:1, residues 134-170 of hCAP18", "values": [{"measurement": "resistance to proteolytic degradation", "value": "significantly resistant to proteolytic degradation in solution"}]}
